Source: publication PMC11259706 (The Journal of Biological Chemistry, 2024)

B1: Hsp70 10mer peptide Ac-GSGPTIEEVD-OH [modified: N-terminal acetyl; N-terminal acetyl] [not stated] / protein phosphatase 5 (PP5), human, full-length [human] (parent complex)
chain 1: GSGPTIEEVD
chain 2: MAMAEGERTECAEPPRDEPPADGALKRAEELKTQANDYFKAKDYENAIKFYSQAIELNPSNAIYYGNRSLAYLRTECYGYALGDATRAIELDKKYIKGYYRRAASNMALGKFRAALRDYETVVKVKPHDKDAKMKYQECNKIVKQKAFERAIAGDEHKRSVVDSLDIESMTIEDEYSGPKLEDGKVTISFMKELMQWYKDQKKLHRKCAYQILVQVKEVLSKLSTLVETTLKETEKITVCGDTHGQFYDLLNIFELNGLPSETNPYIFNGDFVDRGSFSVEVILTLFGFKLLYPDHFHLLRGNHETDNMNQIYGFEGEVKAKYTAQMYELFSEVFEWLPLAQCINGKVLIMHGGLFSEDGVTLDDIRKIERNRQPPDSGPMCDLLWSDPQPQNGRSISKRGVSCQFGPDVTKAFLEENNLDYIIRSHEVKAEGYEVAHGGRCVTVFSAPNYCDQMGNKASYIHLQGSDLRPQFHQFTAVPHPNVKPMAYANTLLQLGMM

Variants of: B1
Assay: competition fluorescence polarisation; read at the highest peptide concentration, 100 µM; read off a plot

| response | Variant |
| --- | --- |
| ~74 % tracer bound | chain 1 E8A |
| ~56 % tracer bound | chain 1 GSGPTIEEAD [chain 1 V9A] |
| ~36 % tracer bound | chain 1 GSGPTIAEVD [chain 1 E7A] |
| ~12 % tracer bound | chain 1 GSGPTAEEVD [chain 1 I6A] |
| ~110 % tracer bound | chain 1 GSGPTIEEVA [chain 1 D10A] |
